The target of this test is CpG-ST-E2 nanoparticle (ST-E2 with CpG 1826 conjugated in the internal cavity) (Geobacillus stearothermophilus). Briefly: SpyTag-SpyCatcher reaction, SDS-PAGE.

The substance SpyCatcher-H5 hemagglutinin construct returned a units of H5 conjugated per nanoparticle (units of H5 per nanoparticle) of 17.1.

The record behind these values is patent US20250073334A1.
